Assay results taken from patent US20220119825A1, “SCALABLE PEPTIDE-GPCR INT[…] SYSTEMS” (THE TRUSTEES OF COLUMBIA UNIVERSITY IN THE CITY OF NEW YORK, priority 2019, published 2022).

Experiments:
Assay in all cases: cell-based or functional assay
[1] = target: T1, Cn.Ste2, Ste2-like mating GPCR of Candida tenuis (Candida tenuis)
T1 chain: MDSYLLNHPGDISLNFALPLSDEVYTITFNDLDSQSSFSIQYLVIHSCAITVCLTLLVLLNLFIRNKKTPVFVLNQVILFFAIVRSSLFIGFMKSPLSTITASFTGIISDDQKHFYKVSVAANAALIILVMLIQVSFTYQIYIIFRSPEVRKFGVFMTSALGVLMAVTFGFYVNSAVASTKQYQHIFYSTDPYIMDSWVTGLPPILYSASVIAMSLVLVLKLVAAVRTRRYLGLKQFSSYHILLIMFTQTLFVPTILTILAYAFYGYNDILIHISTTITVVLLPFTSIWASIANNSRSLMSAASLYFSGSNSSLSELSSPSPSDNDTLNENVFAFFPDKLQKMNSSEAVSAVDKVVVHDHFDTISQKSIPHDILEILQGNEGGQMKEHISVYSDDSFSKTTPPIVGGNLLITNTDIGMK

[2] = target: T2, Zr.Ste2, Ste2-like mating GPCR of Zygosaccharomyces rouxii (Zygosaccharomyces rouxii)
T2 chain: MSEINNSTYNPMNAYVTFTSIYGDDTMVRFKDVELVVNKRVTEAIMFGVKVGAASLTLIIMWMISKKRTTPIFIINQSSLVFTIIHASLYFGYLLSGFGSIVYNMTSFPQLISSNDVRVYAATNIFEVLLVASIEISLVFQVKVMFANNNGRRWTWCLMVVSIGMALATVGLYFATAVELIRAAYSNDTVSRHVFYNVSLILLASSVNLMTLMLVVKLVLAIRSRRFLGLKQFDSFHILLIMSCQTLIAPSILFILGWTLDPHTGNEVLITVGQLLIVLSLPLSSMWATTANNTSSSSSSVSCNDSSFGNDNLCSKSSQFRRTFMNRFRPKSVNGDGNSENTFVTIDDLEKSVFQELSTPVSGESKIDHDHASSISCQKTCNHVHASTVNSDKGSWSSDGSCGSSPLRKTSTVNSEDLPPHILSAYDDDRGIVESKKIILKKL

[3] = target: T3, Cp.Ste2, Ste2-like mating GPCR of Candida parapsilosis (Candida parapsilosis)
T3 chain: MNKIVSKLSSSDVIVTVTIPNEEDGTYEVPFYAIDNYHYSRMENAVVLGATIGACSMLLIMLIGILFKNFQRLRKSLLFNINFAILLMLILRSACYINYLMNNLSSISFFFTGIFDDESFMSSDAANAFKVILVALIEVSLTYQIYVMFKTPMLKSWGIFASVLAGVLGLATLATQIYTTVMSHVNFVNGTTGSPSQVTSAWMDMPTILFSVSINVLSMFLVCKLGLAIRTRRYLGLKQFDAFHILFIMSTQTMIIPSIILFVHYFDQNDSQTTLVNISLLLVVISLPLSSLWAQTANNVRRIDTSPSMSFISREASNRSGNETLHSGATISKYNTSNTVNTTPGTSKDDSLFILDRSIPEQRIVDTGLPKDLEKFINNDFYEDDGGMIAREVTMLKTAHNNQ

[4] = target: T4, Cgu.Ste2, Ste2-like mating GPCR of Candida (Pichia) guilliermondii (Candida (Pichia) guilliermondii)
T4 chain: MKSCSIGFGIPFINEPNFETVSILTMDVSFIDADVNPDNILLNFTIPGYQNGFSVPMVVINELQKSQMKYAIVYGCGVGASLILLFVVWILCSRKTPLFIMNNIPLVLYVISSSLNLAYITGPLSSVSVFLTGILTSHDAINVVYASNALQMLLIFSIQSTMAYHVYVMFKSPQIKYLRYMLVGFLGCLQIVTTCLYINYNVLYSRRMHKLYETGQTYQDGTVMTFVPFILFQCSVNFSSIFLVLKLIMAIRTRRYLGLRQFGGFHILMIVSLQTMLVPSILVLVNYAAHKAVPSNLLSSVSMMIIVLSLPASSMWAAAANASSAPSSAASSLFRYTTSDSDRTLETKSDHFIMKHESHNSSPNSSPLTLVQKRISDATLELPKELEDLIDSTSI

[5] = target: T5, Cl.Ste2, Ste2-like mating GPCR of Candida (Clavispora) lusitaniae (Candida (Clavispora) lusitaniae)
T5 chain: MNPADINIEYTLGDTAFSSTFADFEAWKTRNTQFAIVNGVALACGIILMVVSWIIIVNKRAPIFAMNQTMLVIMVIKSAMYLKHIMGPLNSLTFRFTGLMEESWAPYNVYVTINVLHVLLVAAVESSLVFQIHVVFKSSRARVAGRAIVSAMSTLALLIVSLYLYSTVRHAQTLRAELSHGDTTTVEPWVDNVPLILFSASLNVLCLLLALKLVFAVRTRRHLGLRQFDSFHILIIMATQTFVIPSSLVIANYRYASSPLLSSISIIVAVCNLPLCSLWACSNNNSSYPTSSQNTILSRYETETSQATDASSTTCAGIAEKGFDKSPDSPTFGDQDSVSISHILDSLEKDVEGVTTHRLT

FSWNYRLKWQPIS [Cn peptide ligand #1 FSWNYRLKWQPIS]
Bttm (FUS1p-RFP reporter) [1]: 29.7 fluorescence/A600 (not printed)
EC50 (FUS1p-RFP reporter) [1]: -7.4 log10 M (not printed)
Fold Change (FUS1p-RFP reporter) [1]: 5.1 fold
Span (FUS1p-RFP reporter) [1]: 122 fluorescence/A600 (not printed)
Top (FUS1p-RFP reporter) [1]: 152 fluorescence/A600 (not printed)

HFIELDPGQPMF [Zr peptide ligand #1 (Table 3: …)]
Bttm (FUS1p-RFP reporter) [2]: 57.2 fluorescence/A600 (not printed)
EC50 (FUS1p-RFP reporter) [2]: -7.4 log10 M (not printed)
Fold Change (FUS1p-RFP reporter) [2]: 1.9 fold
Span (FUS1p-RFP reporter) [2]: 52.7 fluorescence/A600 (not printed)
Top (FUS1p-RFP reporter) [2]: 110 fluorescence/A600 (not printed)

KPHWTTYGYYEPQ [Cp peptide ligand #1 KPHWTTYGYYEPQ]
Bttm (FUS1p-RFP reporter) [3]: 36.2 fluorescence/A600 (not printed)
EC50 (FUS1p-RFP reporter) [3]: -8.5 log10 M (not printed)
Fold Change (FUS1p-RFP reporter) [3]: 7 fold
Span (FUS1p-RFP reporter) [3]: 218 fluorescence/A600 (not printed)
Top (FUS1p-RFP reporter) [3]: 254 fluorescence/A600 (not printed)

KKNSRFLTYWFFQPIM [Cgu peptide ligand #1 KKNSRFLTYWFFQPIM]
Bttm (FUS1p-RFP reporter) [4]: 41.2 fluorescence/A600 (not printed)
EC50 (FUS1p-RFP reporter) [4]: -7.4 log10 M (not printed)
Fold Change (FUS1p-RFP reporter) [4]: 5.1 fold
Span (FUS1p-RFP reporter) [4]: 170 fluorescence/A600 (not printed)
Top (FUS1p-RFP reporter) [4]: 212 fluorescence/A600 (not printed)

KWKWIKFRNTDVIG [Cl peptide ligand #1 KWKWIKFRNTDVIG]
Bttm (FUS1p-RFP reporter) [5]: 39.8 fluorescence/A600 (not printed)
EC50 (FUS1p-RFP reporter) [5]: -7.5 log10 M (not printed)
Fold Change (FUS1p-RFP reporter) [5]: 1.4 fold
Span (FUS1p-RFP reporter) [5]: 186 fluorescence/A600 (not printed)
Top (FUS1p-RFP reporter) [5]: 226 fluorescence/A600 (not printed)
